Sequences and labels used below:
B1: glmS ribozyme (parent)
chain: AUAAAAGCGCCAGAACUACAGAAAUGUAGUUGACGAGGAGGAGGUUUAUCGAAUUUUCGGCGGAUGCCUCCAAA

± gives the standard error. Variants at the floor of the assay were thinned out.

Variants of B1 are the subject of the first data set. Description: self-cleavage kobs at 2500 uM GlcN6P; higher = faster cleavage; RNA array. Conditions: with glucosamine-6-phosphate. The procedure, abridged: (§1)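 kobs was derived by fitting per-tile medians to one- or two-exponential decays after normalising signals to baseline and to non-cleaving reference variants. Those signals came from barcoded ribozyme variants transcribed in situ by E. coli RNA polymerase on sequenced MiSeq chips, followed through a hybridised Cy3 probe at 37 °C and imaged over ~14 h. Glucosamine-6-phosphate (40 μM to 10 mM) in HEPES/KCl/Mg(OAc)2 buffer was flowed in. Weighted Michaelis–Menten fits across concentrations then gave kcat and KM.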
As to A15G U30G A64G, the “self-cleavage kobs at 2500 uM GlcN6P” value was 0.00272 ± 0.00073 s⁻¹. On to U46A U56G C67G, for which the “self-cleavage kobs at 2500 uM GlcN6P” value was 0.000172 ± 4.6e-05 s⁻¹.

As for G43U U47C G63A, the “self-cleavage kobs at 2500 uM GlcN6P” value was less than 1e-05 s⁻¹. Same read-out and setting: with C10U A33G A39G G41C C67U the figure was less than 1e-05 s⁻¹; with A6U U47A U57C, less than 1e-05 s⁻¹; with C16U A53U A64U, 4.5e-05 ± 2.3e-05 s⁻¹. On to A33G A52G G63A, for which the “self-cleavage kobs at 2500 uM GlcN6P” value is less than 1e-05 s⁻¹. Take A6G G40A G41C: the “self-cleavage kobs at 2500 uM GlcN6P” value was less than 1e-05 s⁻¹.

Take U30A A42C U45G U65G C70G: the “self-cleavage kobs at 2500 uM GlcN6P” value is 0.000761 ± 0.00026 s⁻¹.

As for C11G G13A G41A A52U A53C G63C C68G, the “self-cleavage kobs at 2500 uM GlcN6P” value was less than 1e-05 s⁻¹. Same read-out and setting: to A42G C50G G63U belongs less than 1e-05 s⁻¹; to G7U C8U G41C C70G, less than 1e-05 s⁻¹. Same read-out and setting: to C11G U46G G59C U65G belongs 0.000186 ± 8.3e-05 s⁻¹; to A36G G40U U45G, less than 1e-05 s⁻¹; to G35A G38C C58U, less than 1e-05 s⁻¹. With G9C G13U A48G, the “self-cleavage kobs at 2500 uM GlcN6P” value was less than 1e-05 s⁻¹.

For C8G G13U A39U C68G, the “self-cleavage kobs at 2500 uM GlcN6P” value was less than 1e-05 s⁻¹. As to A6G C11A U49G, the “self-cleavage kobs at 2500 uM GlcN6P” value was less than 1e-05 s⁻¹. A6G G40U A52G A53U: the “self-cleavage kobs at 2500 uM GlcN6P” value was less than 1e-05 s⁻¹. For the variant A12U U30A G37A G59U, the “self-cleavage kobs at 2500 uM GlcN6P” value is less than 1e-05 s⁻¹. As to U54A G63A C70U, the “self-cleavage kobs at 2500 uM GlcN6P” value is less than 1e-05 s⁻¹.

As to G13U U47A C71G, the “self-cleavage kobs at 2500 uM GlcN6P” value is 5.89e-05 ± 1.7e-05 s⁻¹. As for C10A C50U C68U, the “self-cleavage kobs at 2500 uM GlcN6P” value was found to be 6.13e-05 ± 2.7e-05 s⁻¹.

Consider G7U G32A A48G U54A, for which the “self-cleavage kobs at 2500 uM GlcN6P” value is less than 1e-05 s⁻¹. As to A14U G32C U47A, the “self-cleavage kobs at 2500 uM GlcN6P” value worked out at 8.18e-05 ± 1.8e-05 s⁻¹. Same read-out and setting: to A39G A42U C67U belongs 9.25e-05 ± 2.6e-05 s⁻¹; to A12C C16U G40A, 0.00176 ± 0.00038 s⁻¹; to A15G G44U U54C, 0.00016 ± 3.1e-05 s⁻¹. In the case of A53G C61U C68G, the “self-cleavage kobs at 2500 uM GlcN6P” value was found to be 6.94e-05 ± 2.7e-05 s⁻¹. On the same count and under the same terms, with C16G A39G C71U the figure was 0.0054 ± 0.0016 s⁻¹.

In the case of A15G A39U G41A, the “self-cleavage kobs at 2500 uM GlcN6P” value was determined as 0.000369 ± 0.0001 s⁻¹. In the case of C34A G41U A42C, the “self-cleavage kobs at 2500 uM GlcN6P” value is less than 1e-05 s⁻¹. In the case of G41U G44C U55G G59U, the “self-cleavage kobs at 2500 uM GlcN6P” value is less than 1e-05 s⁻¹. As to C10G A42C U65G, the “self-cleavage kobs at 2500 uM GlcN6P” value is less than 1e-05 s⁻¹. Regarding A42G G51C G60C C68G, the “self-cleavage kobs at 2500 uM GlcN6P” value was less than 1e-05 s⁻¹. For the variant A12C A14U U31C U56G, the “self-cleavage kobs at 2500 uM GlcN6P” value was determined as 0.0134 ± 0.0063 s⁻¹. For the variant U49C C50U U56G, the “self-cleavage kobs at 2500 uM GlcN6P” value was less than 1e-05 s⁻¹. As to A12U A15U C50A G51A G59C, the “self-cleavage kobs at 2500 uM GlcN6P” value is less than 1e-05 s⁻¹. Turning to A6G A15U G59C, the “self-cleavage kobs at 2500 uM GlcN6P” value is less than 1e-05 s⁻¹. As for U30C G66A C67G, the “self-cleavage kobs at 2500 uM GlcN6P” value is 4.46e-05 ± 1.2e-05 s⁻¹. Regarding A14C U54G C58G C68U, the “self-cleavage kobs at 2500 uM GlcN6P” value worked out at 4.09e-05 ± 1.3e-05 s⁻¹. Consider A33C C68G C70U, for which the “self-cleavage kobs at 2500 uM GlcN6P” value is less than 1e-05 s⁻¹. Same read-out and setting: with A15G G32A G35U A52C the figure was less than 1e-05 s⁻¹; with A6U U56A G63U, less than 1e-05 s⁻¹. On to A39U A42G A64U, for which the “self-cleavage kobs at 2500 uM GlcN6P” value amounted to 5.16e-05 ± 2.2e-05 s⁻¹.

For G13A U30A C58A, the “self-cleavage kobs at 2500 uM GlcN6P” value came out at 0.000138 ± 3.4e-05 s⁻¹. The same measure, in the same setting: to G7C U30G G32U A64G belongs less than 1e-05 s⁻¹. For G7A C8G G63U, the “self-cleavage kobs at 2500 uM GlcN6P” value was less than 1e-05 s⁻¹. G32A U69C: the “self-cleavage kobs at 2500 uM GlcN6P” value was found to be 0.000191 ± 7.8e-05 s⁻¹. The same measure, in the same setting: with C34U G63U A64G the figure was 0.000111 ± 3.8e-05 s⁻¹.

For the variant A14G A36U A39C, the “self-cleavage kobs at 2500 uM GlcN6P” value was less than 1e-05 s⁻¹.

As for A14C G29C A64G, the “self-cleavage kobs at 2500 uM GlcN6P” value came out at 5.47e-05 ± 2e-05 s⁻¹. Regarding A52G G62A G63U U69G, the “self-cleavage kobs at 2500 uM GlcN6P” value came out at 0.000139 ± 4.7e-05 s⁻¹. Turning to U31G U56C G62A, the “self-cleavage kobs at 2500 uM GlcN6P” value was less than 1e-05 s⁻¹. Same read-out and setting: with C8G A14U A39G the figure was less than 1e-05 s⁻¹; with A14U U45G U47A U54C G62U, less than 1e-05 s⁻¹. With G40C G41U C71A, the “self-cleavage kobs at 2500 uM GlcN6P” value was found to be 4.86e-05 ± 1.8e-05 s⁻¹. Take A14C U30G A42G A53C: the “self-cleavage kobs at 2500 uM GlcN6P” value was determined as 7.92e-05 ± 2.7e-05 s⁻¹.

In the case of U45G A52U G63C, the “self-cleavage kobs at 2500 uM GlcN6P” value is less than 1e-05 s⁻¹.

Consider U30G G41C C58U, for which the “self-cleavage kobs at 2500 uM GlcN6P” value is less than 1e-05 s⁻¹. On to C11A G32A G43C U46A C50A G60A, for which the “self-cleavage kobs at 2500 uM GlcN6P” value is less than 1e-05 s⁻¹.

As to A36C G37A G38A U56A C68G, the “self-cleavage kobs at 2500 uM GlcN6P” value came out at 6.64e-05 ± 2.3e-05 s⁻¹. Regarding G9A G40U G63A A64U, the “self-cleavage kobs at 2500 uM GlcN6P” value was less than 1e-05 s⁻¹. In the case of A14G A39U C71G, the “self-cleavage kobs at 2500 uM GlcN6P” value came out at 0.00129 ± 0.00041 s⁻¹. On the same count and under the same terms, to A42U C58U U65G belongs less than 1e-05 s⁻¹. For G41A C61A G62A, the “self-cleavage kobs at 2500 uM GlcN6P” value is less than 1e-05 s⁻¹. For A14U U47C C61G, the “self-cleavage kobs at 2500 uM GlcN6P” value was less than 1e-05 s⁻¹.

In the case of G13A C50A U69A, the “self-cleavage kobs at 2500 uM GlcN6P” value was 3.87e-05 ± 1.8e-05 s⁻¹. Take G44U U49C C61A: the “self-cleavage kobs at 2500 uM GlcN6P” value is less than 1e-05 s⁻¹.

For A15G U45C U65G, the “self-cleavage kobs at 2500 uM GlcN6P” value was 0.000117 ± 3.1e-05 s⁻¹.

As to G37A A53G U55G U65G, the “self-cleavage kobs at 2500 uM GlcN6P” value came to 8.03e-05 ± 1.8e-05 s⁻¹. Still for that read-out and setting: with A12U U31C U57G the figure was 5.17e-05 ± 1.8e-05 s⁻¹; with A12C U55A C58A, 8.77e-05 ± 1.8e-05 s⁻¹.

On to G44A U46A A48U A53C, for which the “self-cleavage kobs at 2500 uM GlcN6P” value is less than 1e-05 s⁻¹.

For the variant C16G G40U G41U, the “self-cleavage kobs at 2500 uM GlcN6P” value is less than 1e-05 s⁻¹. Consider A33U G37A U55A C61U, for which the “self-cleavage kobs at 2500 uM GlcN6P” value was less than 1e-05 s⁻¹. For the variant G13A U49C C50U, the “self-cleavage kobs at 2500 uM GlcN6P” value was less than 1e-05 s⁻¹. A36U U55C C70G: the “self-cleavage kobs at 2500 uM GlcN6P” value was less than 1e-05 s⁻¹.

On to C16U A39G A48C, for which the “self-cleavage kobs at 2500 uM GlcN6P” value is 0.000168 ± 5e-05 s⁻¹. Consider G13U G38U C68U, for which the “self-cleavage kobs at 2500 uM GlcN6P” value is less than 1e-05 s⁻¹.

Another data set covers variants of B1. Description: self-cleavage kobs at 10000 uM GlcN6P; higher = faster cleavage; RNA array. Particulars: with glucosamine-6-phosphate. Put shortly:
as §1
For C10U A33G A39G G41C C67U, the “self-cleavage kobs at 10000 uM GlcN6P” value was less than 1e-05 s⁻¹.

With A53G C61U C68G, the “self-cleavage kobs at 10000 uM GlcN6P” value is 4.37e-05 ± 1.2e-05 s⁻¹.

Regarding A14C U54G C58G C68U, the “self-cleavage kobs at 10000 uM GlcN6P” value was 4.43e-05 ± 2e-05 s⁻¹.

Take G32A U69C: the “self-cleavage kobs at 10000 uM GlcN6P” value was 0.000717 ± 0.00016 s⁻¹.

For the variant C8G A14U A39G, the “self-cleavage kobs at 10000 uM GlcN6P” value was less than 1e-05 s⁻¹. For G40C G41U C71A, the “self-cleavage kobs at 10000 uM GlcN6P” value worked out at 0.000104 ± 1.6e-05 s⁻¹. For C16U A39G A48C, the “self-cleavage kobs at 10000 uM GlcN6P” value is 0.000325 ± 9.5e-05 s⁻¹.

The values are drawn from the supplement of paper PMC7125110.
